Two substances from publication doi:10.1101/803833 can be followed below.

The target in the test is human SNAP-tagged GLP-1R (glucagon-like peptide-1 receptor) on HEK293-SNAP-GLP-1R cells (human) (UniProt P43220). In words: FRET or BRET. (In general: BRET reads energy transfer from a luciferase to a nearby fluorophore.)
UniProt P43220, sequence (P43220 24-463): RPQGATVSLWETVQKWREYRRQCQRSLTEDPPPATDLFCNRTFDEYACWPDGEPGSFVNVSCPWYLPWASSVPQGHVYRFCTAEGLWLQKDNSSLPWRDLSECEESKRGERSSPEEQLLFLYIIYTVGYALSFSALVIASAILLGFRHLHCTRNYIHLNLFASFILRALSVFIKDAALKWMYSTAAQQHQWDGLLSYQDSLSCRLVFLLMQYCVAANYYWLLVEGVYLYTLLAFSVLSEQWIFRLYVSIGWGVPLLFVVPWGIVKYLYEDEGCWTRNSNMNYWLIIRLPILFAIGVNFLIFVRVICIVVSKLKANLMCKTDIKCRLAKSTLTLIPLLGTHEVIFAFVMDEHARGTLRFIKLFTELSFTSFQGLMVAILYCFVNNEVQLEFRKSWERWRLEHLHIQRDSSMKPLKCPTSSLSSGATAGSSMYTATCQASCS

For the substance “exendin-4 (from UniProt P26349 48-87) (peptide)”, the log Kd is -9.2.

Take lixisenatide (peptide): the log Kd is -9.
